The DeepSol protein solubility set

Test: soluble on expression in E. coli; label from the status in PepcDB or PDB records

Soluble on expression in E. coli, not soluble:
QVPENNGYAGDKPLKTYIHDTVKGDLYYTAGSSYYSGKAYPGDTYKVNHNFDLPEGATIKLARLYNYWTWSSEGMEGRNPEMKLSFDGQELEPDREYSDRKGWGSYDYPSGTWAYDVSSCITGSGTFTTEIENTGPDASCVCIEGVGLLIVYEDPDGRNIEYWINEGADELNSQMDENGSPLYYTAPNQTICEMLRPALQFPIRSATLWTITQSGNWENNTLIVNDKKFTGICDGKPYPDLEIDKRNVTDCLKAGENIILFQASGDYVISSGSFLVVEKDLLAEESKSSTEEASEKSEETGSTPETSGTESKKAPGFGFVFAPALLTGRKLVSGLRDK
MGSDKIHHHHHHMIVKDYRREFEALAKAYEKAGGDVSKFLDRRIASIIISGDKVIGLNGVEGVELTPYRIENGVQVDMRIKEGVVVEYPVHVCTGYLEKKGLQRVVFNIRLEKNAKAIFVAHCVFPWTEDFTHDALMNVELEEGAWMEYHDEHTHSETGSINLITRSIARVGERAVYRNTFTLVKTRIGTLRVFMDASLEKDAVGELYTKVKAVEDDDVEVKEILRLNGMGARGLAKTNAVAIDRAKVSVVNEVYGNAPHTRGHVECLEIAKGDGVDVRALPVLVVKNDSSELTHEASIGRVNAKQLETLMAKGLTEEEATEMIIKGILT
MAELPAKRRFTRIDRLPPYVFNITSELKMAARRRGEDIIDFSMGNPDGPTPPHIVEKMCSVAQREDTHGYSTSRGIPCLRRAISRWYADRYQVDIDPENEAIVTIGSKEGLAHLMLATLDHGDTVLVPNPSYPIHIYGAVIAGAQVRSVPLTEGIDFFGELERAIRETIPKPKMMILGFPSNPTAQCVELDFFERVVALAKQYDVLVVHDLAYADIVYDGWKAPSIMQVPGAKDIAVEFFTLSKSYNMAGWRIGFMVGNPELVSALARIKSYHDYGTFTPLQVAAIAALEGDQQCVRDIAEQYRQRRNALVRGLHEAGWMVDNPKASMYVWAKIPEPYAHLGSLEFAKRLLAEAKVCVSPGIGFGDYGDTHVRFALIENQDRIRQAVRGIKSMFRADGLLKPGKSSPNEMA
MTFNHKKMEPKWQQYWSEHNTFKTTEDKNKENFYALDMFPYPSGAGLHVGHPEGYTATDILSRMKRMQGKNVLHPIGWDAFGLPAEQYAIDTGNDPEEFTALNIANFTRQIKSLGFSYDWDREINTTDPEYYKWTQWIFEKLYENGLAYEAEIAVNWCPALGTVLANEEVIDGKSERGGFPVFRKPMRQWMLKITAYADRLLDDLDLVDWPENIKDMQRNWIGRSEGAEVTFKIKDSDETFNVFTTRPDTLFGATYTVFAPEHELIEKITTPEQKEAVEAYKKQVELKSELERTDLAKDKTGVFTGAYAINPINGEEVPIWIADYVLIQYGTGAIMAVPAHDERDFEFAQQFGLNIRPVLEGGDVTKEAFTGDGPHINSDFLNGLAKAEAITAAIDWLEKEGIGSRKITYRLRDWLFSRQRYWGEPIPVIHWEDGETTLVPEEELPLLLPKATEIKPSGTGESPLANLHDWVNVTDENGRKGRRETNTMPQWAGSSWYFLRYIDPKNSEAIADKEKLAEWLPVDVYIGGAEHAVLHLLYARFWHKFLYDIGVVPTKEPFQKLFNQGMILGENNEKMSKSRGNVVNPDEVVEKYGADTLRLYEMFMGPLEASIAWNENGLEGARKFLDRIWRLLVTEEGTLAEKVTTDANANLEKAYHHMVKTVTNHYENLRFNTGISQLMIFINEAYKQDTIPKQYVEGFVQLLSPIAPHLAEELWEILGHTETISYVAWPTYDETKLVEDEVEIVLQVNGKVKSKITVAKSLGKEELEKIAQEDNKMKENLEGKTIRKVIVVPGKLVNIVAN

Soluble on expression in E. coli, soluble:
MSLYTLYSFGTPNGFKPTIMLEELTQPYTIELIDITQGEQFNPDFLKISPNNKIPVLHDQTNDFYLMESVAILQYLAEKHRQFLPETTKEKYTIIQWCYFQAAHIGPMFGQFGHFHRYAQERVPYAMTRYADESMRLLGVMEKQLVKAPFIGGSNYTIADMAIWPWIWCFQFIYGQTIDAKQFPSLMSWYQRISERQAVRATLTAYGREGHHHHHH
MSLNPLKCAVIGVGYLGKFHAEKYAALPGCELVAVVDADPVTAAEIGDRLGVRGLTDHRALLGKVDAVSVVVPTSLHHRVARDFLEAGAHVLVEKPITVTVEEADELIRIAKEKQRVLMVGHLERFNAAVLGLDLDHHKPLFIESHRLAPFKPRANDVSVVLDLMIHDIDIILDMVDSEVERIDAKGVAVLTGDIDIANARLQFKSGCVANVTASRVSLKVERKMRMFMPNAYVSVDFQNRVLARHRKGEGEMFPGVPEILSEESVFENGDALMEEIRHFLDCIREHREPLVSGAAGRRALATAIEITNLLKVQESRSEGHHHHHH
